Common to all, as to format: physicochemical
A short description of series [1]: Circular dichroism of alkene constrained (stapled) Lacripep acetate salts in citrate buffer (Example 7). The following applies: 10 mM sodium citrate buffer pH 6.5, 0.2 mg/mL, 35° C. The method, then: Alkene Constrained Analogs of Lacripep™ (SEQ ID NO:1) were synthesized with N-terminal acetylation and C-terminal amidation as an acetate salt. The compounds were reconstituted in 10 mM sodium citrate buffer, pH 6.5 for circular dichroism, with or without 10 mM n-DodecylPhosphoCholine (DPC). The resulting citric acid buffered solutions were tested for circular dichroism.
(§1) CD spectra were obtained using the Jasco 810 CD/ORD with Fluorescence Monochrometer in a 1 mm quartz cell from Starna Cells, Inc. Spectra were obtained at 35° C. from 250 nm to 190 nm in continuous scanning mode (scanning speed, 100 nm/min; data pitch, 0.1 nm; bandwidth, 1 nm; response time, 4 s) with a nitrogen flow rate of 100 mL/min. An average of 3 spectra were obtained for each sample (N=3).
In general terms: Circular dichroism is the unequal absorption of left and right circularly polarised light.

Series [2] can be described thus: Circular dichroism of cysteine disulfide constrained Lacripep acetate salts in citrate buffer (Example 8). The following applies: 10 mM sodium citrate buffer pH 6.5, 0.2 mg/mL, 35° C.; for helicity (CD spectra): absence of 10 mM DPC; for negative CD signal between 200 nm and 230 nm: presence of DPC (10 mM). Here is the method: Cysteine Disulfide Constrained Analogs of Lacripep™ (SEQ ID NO:1) were synthesized with N-terminal acetylation and C-terminal amidation as an acetate salt. The compounds were reconstituted in 10 mM sodium citrate buffer, pH 6.5 for circular dichroism, with or without 10 mM DPC. The resulting citric acid buffered solutions were tested for circular dichroism.
as §1

Series [3] can be described thus: Circular dichroism of Lacripep acetate salt vs dodecylphosphocholine form in phosphate buffer (Example 2). The following applies: CD, 0.2 mg/ml; for alpha helicity: 10 mM phosphate, 137 mM NaCl, 2.7 mM KCl buffer pH 7.4, 35° C., dpC forms with 10 mM dodecylphosphocholine; for irregular: phosphate buffer pH 7.4, 35° C., 10 mM dodecylphosphocholine. Here is the method: Lacripep™ (SEQ ID NO:1) was synthesized either without (unmodified, KQFIENGSEFAQKLLKKFS) or with (modified, Ac-KQFIENGSEFAQKLLKKFS-NH2)N-terminal acetylation and C-terminal amidation as an acetate salt. The compounds (0.2 mg/ml) were reconstituted in 10 mM phosphate, 137 mM NaCl, 2.7 mM KCl buffer, pH 7.4 with 10 mM dodecylphosphocholine for circular dichroism. CD spectra were obtained using the Jasco 810 CD/ORD with Fluorescence Monochrometer in a 1 mm quartz cell from Starna Cells, Inc. Spectra were obtained at 35° C. from 250 nm to 190 nm in continuous scanning mode (scanning speed, 100 nm/min; data pitch, 0.1 nm; bandwidth, 1 nm; response time, 4 s) with a nitrogen flow rate of 100 mL/min. An average of 3 spectra were obtained for each sample (N=3). Analysis of the dichroism spectra can use methods known in the art, including, DichroWeb: On-line analysis for protein Circular Dichroism spectra; Whitmore, L. and Wallace, B. A. (2008) Biopolymers 89: 392-400; Whitmore, L. and Wallace, B. A. (2004) Nucleic Acids Research 32: W668-673, each of which is incorporated by reference herein in its entirety.

Series [4] can be described thus: Circular dichroism of Lacripep oleate salt vs acetate salt in citrate buffer (Example 3). The following applies: CD, 0.2 mg/mL, 10 mM sodium citrate buffer pH 6.5, 35° C. The method, then:
Lacripep™ (SEQ ID NO:1) was synthesized either without or with N-terminal acetylation and C-terminal amidation as an acetate salt. The compounds were reconstituted in 10 mM sodium citrate buffer, pH 6.5 for circular dichroism. Lacripep™ synthesized either without or with N-terminal acetylation and C-terminal amidation as an acetate salt was converted to an oleate salt by dissolving 1 equivalent of the Lacripep™ acetate salt and 4 equivalents of oleic acid (one oleic acid per lysine residue in Lacripep™) in a mixture of water buffered with citric acid to pH 6.5. The resulting solutions were then flash frozen and lyophilized under vacuum to remove the more volatile acetic acid. The lyophilized powder is suspended in water and the pH is adjusted to between 6.2 to 6.8 with citric acid and sodium citrate and the osmolality to between 250 to 350 mOsm/kg. […]
CD spectra were obtained using the Jasco 810 CD/ORD with Fluorescence Monochrometer in a 1 mm quartz cell from Starna Cells, Inc. Spectra were obtained at 35° C. from 250 nm to 190 nm in continuous scanning mode (scanning speed, 100 nm/min; data pitch, 0.1 nm; bandwidth, 1 nm; response time, 4 s) with a nitrogen flow rate of 100 mL/min. […]

Bridge positions count the residues as written; N and C are the ends. Square brackets hold non-standard residues; d marks the D form. Ends that are not written are not given here. 2‑(7-octenyl)alanine = olefinic alpha-amino acid with 7-octenyl side chain, staple residue; 2‑(4-pentenyl)alanine = 2-(4-pentenyl)alanine

Take “Ac-KQ [2-(7-octenyl) alanine]-IENGSE-[2-(4-pentenyl) alanine]-AQKLLKKFS-NH2 (Ac-KQ[2‑(7-octenyl)alanine]IENGSE[2‑(4-pentenyl)alanine]AQKLLKKFS-NH2; staple 3-10; listed as Homo sapiens) [SEQ ID NO: 59]”: the “negative CD signal between 200 nm and 230 nm” value in series [1] (presence of 10 mM DPC) is “approximately −50 Δε”.
In the case of “Ac-KQF C(S-)EN C(S-)SE FAQ KLL KKF S-NH2 (Ac-KQFCENCSEFAQKLLKKFS-NH2; disulfide 4-7; SMILES CC(=O)N[C@@H](CCCCN)C(=O)N[C@@H](CCC(N)=O)C(=O)N[C@@H](Cc1ccccc1)C(=O)N[C@H]1CSSC[C@@H](C(=O)N[C@@H](CO)C(=O)N[C@@H](CCC(=O)O)C(=O)N[C@@H](Cc2ccccc2)C(=O)N[C@@H](C)C(=O)N[C@@H](CCC(N)=O)C(=O)N[C@@H](CCCCN)C(=O)N[C@@H](CC(C)C)C(=O)N[C@@H](CC(C)C)C(=O)N[C@@H](CCCCN)C(=O)N[C@@H](CCCCN)C(=O)N[C@@H](Cc2ccccc2)C(=O)N[C@@H](CO)C(N)=O)NC(=O)[C@H](CC(N)=O)NC(=O)[C@H](CCC(=O)O)NC1=O; listed as Homo sapiens) [SEQ ID NO: 72]”, in series [2], the “helicity (CD spectra)” value is recorded as “significant helicity”; the “negative CD signal between 200 nm and 230 nm” value is recorded as −20 to −30 Δε.
With “Ac-KQF IEN C(S-)SE C(S-)AQ KLL KKF S-NH2 (Ac-KQFIENCSECAQKLLKKFS-NH2; bridge 7-10; not fully specified (bridges); printed as Ac-KQF IEN C(S-)SE C(S-)AQ KLL KKF S-NH2; listed as Homo sapiens) [SEQ ID NO: 70]”, the “helicity (CD spectra)” value in series [2] is on record as “significant helicity”.
As for “Ac-KQF IEN GSE FAQ KC(S-)L KC(S-)F S-NH2 (Ac-KQFIENGSEFAQKCLKCFS-NH2; disulfide 14-17; SMILES CC[C@H](C)[C@H](NC(=O)[C@H](Cc1ccccc1)NC(=O)[C@H](CCC(N)=O)NC(=O)[C@H](CCCCN)NC(C)=O)C(=O)N[C@@H](CCC(=O)O)C(=O)N[C@@H](CC(N)=O)C(=O)NCC(=O)N[C@@H](CO)C(=O)N[C@@H](CCC(=O)O)C(=O)N[C@@H](Cc1ccccc1)C(=O)N[C@@H](C)C(=O)N[C@@H](CCC(N)=O)C(=O)N[C@@H](CCCCN)C(=O)N[C@H]1CSSC[C@@H](C(=O)N[C@@H](Cc2ccccc2)C(=O)N[C@@H](CO)C(N)=O)NC(=O)[C@H](CCCCN)NC(=O)[C@H](CC(C)C)NC1=O; listed as Homo sapiens) [SEQ ID NO: 69]”, in series [2], the “helicity (CD spectra)” value is “significant helicity”; the “negative CD signal between 200 nm and 230 nm” value is −5 to −10 Δε.
On to “Ac-KQFIENGSEFAQKLLKKFS-NH2 (listed as Homo sapiens) [Lacripep]”, for which the “helicity (CD spectra)” value is recorded as “little helicity” in series [1] (absence of 10 mM DPC) and “significant helicity” in series [2].
Take “Ac-KQFIENGSEFAQKLLKKFS-NH2 [modified acetate salt form] (also: acetate salt) [Lacripep with N-terminal acetylation and C-terminal amidation, acetate salt]”: the alpha helicity in series [3] was found to be 28%; in series [4], 29%.
As for “Ac-KQFIENGSEFAQKLLKKFS-NH2 [modified dpC form] (also: dpC form) [terminally modified Lacripep constrained with 10 mM dodecylphosphocholine]”, in series [3], the alpha helicity is reported as 100% and the irregular came to 0%.
With “KQFIENGSEFAQKLLKKFS [unmodified acetate salt form] (not fully specified (N-terminus, C-terminus); also: acetate salt) [Lacripep without N-terminal acetylation and C-terminal amidation, acetate salt]”, the alpha helicity in series [3] amounted to 27%; in series [4], 28%.
“KQFIENGSEFAQKLLKKFS [unmodified dpC form] (not fully specified (N-terminus, C-terminus)) [unmodified Lacripep constrained with 10 mM dodecylphosphocholine]”: in series [3], the alpha helicity turned out to be 92% and the irregular stood at 8%.

The values above are taken from patent US20240294573A1, “CONSTRAINED PEPTIDES” (TearSolutions, Inc., priority 2019, published 2024).
